Source: US20110111406A1 (published 2011)

Molecular target: T1, soluble mouse IL-31 receptor (mouse, UniProt Q8K5B1 19-499)
T1 construct: Soluble form
T1 sequence (looked up): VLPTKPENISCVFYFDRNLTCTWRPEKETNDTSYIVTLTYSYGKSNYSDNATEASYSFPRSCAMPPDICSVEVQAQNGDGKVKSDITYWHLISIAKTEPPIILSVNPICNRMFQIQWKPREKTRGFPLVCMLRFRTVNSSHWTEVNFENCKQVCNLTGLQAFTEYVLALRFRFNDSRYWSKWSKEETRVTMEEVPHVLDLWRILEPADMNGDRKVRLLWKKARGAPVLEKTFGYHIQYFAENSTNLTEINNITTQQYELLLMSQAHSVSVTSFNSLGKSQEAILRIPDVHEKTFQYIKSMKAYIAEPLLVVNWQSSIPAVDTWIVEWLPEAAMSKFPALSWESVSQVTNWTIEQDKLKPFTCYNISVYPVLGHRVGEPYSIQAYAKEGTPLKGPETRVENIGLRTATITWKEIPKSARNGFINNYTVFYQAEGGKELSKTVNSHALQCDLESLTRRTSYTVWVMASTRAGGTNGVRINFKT
Assay: Biacore T100, soluble mouse IL-31 receptor as analyte; KD(pH 5.5)/KD(pH 7.4) compared with Anti-IL31R wild type
Protocol: Kinetic analysis of antigen-antibody reactions at pH 5.5 and pH 7.4 was carried out using Biacore T100 (GE Healthcare) for the two types of antibodies prepared as mentioned above: Anti-IL31R wild type and Anti-IL31R clone 1 (buffer: DPBS(−) (pH 7.4 or pH 5.5), 150 mM NaCl, 0.01% Tween 20, 0.02% NaN₃). The antibodies were bound to a sensor chip on which recomb-protein A/G (Pierce) was immobilized by amine coupling, and then the soluble mouse IL-31 receptor (prepared according to the method described in WO 2007/142325) adjusted to an appropriate concentration was injected therein as an analyte. All the measurements were carried out at 25° C. Association rate constants kₐ (1/Ms) and dissociation rate constants kd (1/s) were calculated using Biacore T100 Evaluation Software (GE Healthcare), and dissociation constants KD (M) were calculated based on those values (Table 16). Furthermore, the ratio of affinity at pH 5.5 and pH 7.4 was calculated for each clone to evaluate the pH-dependent binding.

B1: Anti-IL31R clone 1 (antibody, human IgG1, lambda, V domains shown)
VH: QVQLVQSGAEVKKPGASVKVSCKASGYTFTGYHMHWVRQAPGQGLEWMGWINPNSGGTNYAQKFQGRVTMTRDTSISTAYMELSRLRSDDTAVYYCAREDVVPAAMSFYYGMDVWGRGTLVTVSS
VL: LPVLTQPPSVSVAPGQTARITCGGNNIGSKTVYWYQQEPGQAPVLVVYDDTDRPAGIPERFSGANSGNTATLTISRVEAGDEADYYCQVWDSSTDHGVFGGGTKLTVLG
pH-dependent binding ability relative to WT: ~300 times
